Tests used:
Assay in all cases: MST; Clr4 constructs fluorescently labelled (BLUE-NHS), H3KC9me3 nucleosomes added at 8 nM to 2.5 μM; 10 mM Tris–HCl pH 7.5, 150 mM NaCl, 0.5 mM DTT, 0.05% Tween-20; 40% MST power, 80% LED; five runs
[1] = biological target: Clr4 chromodomain construct (S. pombe) (UniProt O60016)
[2] = biological target: Clr4 CD-deleted construct (S. pombe)
[3] = biological target: full-length Clr4 (Cryptic loci regulator protein 4), H3K9 methyltransferase (S. pombe) (UniProt O60016)

## H3KC9me3 nucleosome (H3K9 trimethyl-lysine analog nucleosome) (complex)
[1]
  Kd: 310 nM
[2]
  Kd: 422 nM
[3]
  Kd: 541 nM

From publication PMC10914790
